This note sets out measurements from patent US6015555, “Transferrin receptor specific antibody-neuropharmaceutical or diagnostic agent conjugates” (Alkermes, Inc., dated 2000).

Test [1] has as its target T1, rat transferrin receptor (rat, UniProt Q99376).
Test [2] deals with T1, rat transferrin receptor. The source holds these as a separate data set.
The target of test [3] is T1, rat transferrin receptor. This is another data set of the same source.
Test [4] addresses T1, rat transferrin receptor. The test is described as follows: immunohistochemistry on rat brain sections (brain capillary endothelial cells). The text has this: Biodistribution and Brain Uptake of Anti-Human Transferrin Receptor Antibodies in Cynomolgous Monkeys A collection of 32 murine monoclonal antibodies which recognize various epitopes on the human transferrin receptor were examined for reactivity with brain capillary endothelial cells in sections from human, monkey (cynomolgous), rat and rabbit brain samples by the immunohistochemical methods described in Example 1. These antibodies were obtained from Dr. Ian Trowbridge of the Salk Institute, LaJolla, Calif. […] Two antibodies reacted very weakly with rabbit brain capillaries and none reacted with rat. […] These 2 antibodies are herewithin referred to as 128.1 and Z35.2.

Test [5] concerns the target transferrin receptor on monkey (cynomolgous) brain capillaries (monkey (cynomolgous)).

In turn, OX-26 murine monoclonal antibody showed a distribution of radiolabelled antibody between brain capillary fraction and parenchyma fraction (capillary depletion) in test [1] of 0.36 % ID. Further, in test [2], the percent of the injected dose of 14C-labelled antibody in the brain (% of the injected dose) was found to be 0.9.
“OX-26-methotrexate (MTX) conjugate linked via a gamma-hydrazid (antibody)” registered a distribution of 3H-MTX label between brain capillary fraction and parenchyma fraction (capillary depletion) in test [3] of 4.5 fold.

B1: murine monoclonal antibody 128.1 (antibody, V domains shown)
VH: EVQLQQSGPELVKPGASMKISCKASGYSFTGYTMNWVKQSHGENLEWIGRINPHNGGTDYNQKFKDKAPLTVDKSSNTAYMELLSLTSGDSAVYYCARGYYYYSLDYWGQGTSVTVSS
VL: QIVLTQSPAIMSVSPGEKVTMTCSASSSIRYIHWYQQRPGTSPKRWIYDTSNLASGVPARFSGSGSGTSYSLTISSMEAEDAATYYCHQRNSYPWTFGGGTRLEIR
Take B1: the binding result in test [4] is “no binding”. Also, the share of 14C-labelled antibody in the brain parenchyma (capillary depletion) 24 hours after injection into a cynomolgous monkey in test [5] was 90%.
